Test results from PMC3689846.

Legend:
[1] = molecular target: Core.BaL-GT1 (germline-targeting variant of core gp120) (HIV-1 strain BaL (from the name)); assay: SPR
[2] = molecular target: eOD-GT1 (HIV-1 strain HxB2); assay: SPR

B1: 12A12 (mature) (antibody, V domains shown)
VH: SQHLVQSGTQVKKPGASVRISCQASGYSFTDYVLHWWRQAPGQGLEWMGWIKPVYGARNYARRFQGRINFDRDIYREIAFMDLSGLRSDDTALYFCARDGSGDDTSWHLDPWGQGTLVIVSA
VL: DIQMTQSPSSLSASVGDRVTITCQAGQGIGSSLQWYQQKPGKAPKLLVHGASNLHRGVPSRFSGSGFHTTFSLTISGLQRDDFATYFCAVLEFFGPGTKVEIK
In the case of B1, the Kd [1] is reported as 1 nM.

B2: NIH45-46 (mature) (antibody, V domains shown)
VH: QVRLSQSGGQMKKPGESMRLSCRASGYEFLNCPINWIRLAPGRRPEWMGWLKPRGGAVNYARKFQGRVTMTRDVYSDTAFLELRSLTSDDTAVYFCTRGKYCTARDYYNWDFEHWGRGAPVTVSS
VL: EIVLTQSPATLSLSPGETAIISCRTSQSGSLAWYQQRPGQAPRLVIYSGSTRAAGIPDRFSGSRWGADYNLSISNLESGDFGVYYCQQYEFFGQGTKVQVD
For B2, the Kd [2] was 3 nM.
